{"source": "the supplement of paper PMC9170038", "data": [{"system": "K4 kissing-loop RNA reporter", "assay": "apparent KD of K4 kissing-loop reporter; higher = weaker reporter binding", "settings": "Eterna round: R107; input ligand: FMN 200 uM", "method": "(§1)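 RNA-MaP round R107: designed RNA switches with theophylline, tryptophan, arginine or FMN aptamers are transcribed on-chip within common flanks. They are titrated with a labelled K4 kissing-loop RNA reporter in RNA-MaP buffer (100 mM Tris pH 7.5, 80 mM KCl, 4 mM MgCl2), without ligand or with the indicated ligand. Median apparent KD per design.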", "units": {"apparent KD of K4 kissing-loop reporter": "nM"}, "values": [{"sequence": "AUUUUGAGUGAUGUUCAUAUCUAUUCUGAAGGAGCGCUAAAUAAGGCAGGUAGGUCGCGGAAUAUAUAUAUAUAUAUAUAUAUAU [KL-SSArg-A30]", "apparent KD of K4 kissing-loop reporter": 538}, {"sequence": "GUAUCGCUAGGAGGAUAUUCCGUUUUUCAUAGAAAUGGCUAUGCGGAGUGAUGUUCCGAUUUACCGGAAGAAGGCCUAGUGAUAC [FMN B 23]", "apparent KD of K4 kissing-loop reporter": 106}, {"sequence": "AUACACGUUGCGGCCGCCACUUCGAUUAGUGAUGUUAGGUGUAAGCAGGCGCUGCAUUAAUGUGAAAGGACCGGGCAGAGUAAGC [theeternabot_exclusion_KL_Trp_B_39]", "apparent KD of K4 kissing-loop reporter": 203}, {"sequence": "UGACUGGACUGAAGGAGCGCUAAACUCCUAGUGAUGUUAGGAAAACGAGACAAAGUCUCGAAGCAGGUAGGUCGCAGUCUAGUCU", "apparent KD of K4 kissing-loop reporter": 172}, {"sequence": "UAUGGCGAGGGCCGCAUAUCAUUAAACCAGAAGGAUAUAUGUUACUAUAGAAGGUCUGCCGCUGCGAGUGAUGUUUGGAGUGAUC [theeternabot_sameState_KL_FMN_A_3]", "apparent KD of K4 kissing-loop reporter": 326}, {"sequence": "CGCAGUGAUGUUGCGAGUAGCUACAGGGAAGGAGCGCUCUAGUGAGCAGGUAGGUCGCCCACGCAGUGAUGUUGCGUCAUAGGGU [Exclusion Arg A GF9]", "apparent KD of K4 kissing-loop reporter": 116}, {"sequence": "GCCCGAAAGGGCCGAUGUGUUUGCGGCGAUCGAGGACCGGUACGGCCGCCACUCGUCGAGGCGUUCAGUGAUGUUGAAAGCAUUA", "apparent KD of K4 kissing-loop reporter": 334}, {"sequence": "CCAAACAGUUACGAUACCAGUCUAAUAUAUUUGAUCAAAACCCUCGCCGAGUGAUGUUCGGACCCUUGGCAGCGUCUGGGACAGG [zzbtmullin]", "apparent KD of K4 kissing-loop reporter": 479}, {"sequence": "AAGGGCUAGGCGGCCGCCACUUGUUGUGAACACAUACGAGCCAGUGAUGUUGGUAUUGUGUGCGGAAGGACCGGGCCUAGCCGAA [Exclusion - Tryptophan B (Freestyle 22)]", "apparent KD of K4 kissing-loop reporter": 178}, {"sequence": "ACGCGCGCGAGUGAUGUUCGGAGCGGCUGGCAGGAUAUGUAGCAAUGCAGAAGGGUCGUGGCGGGCGCGGCGAAAGCCGCGCCCG [#2 Exclusion - FMN A Attempt #6 (HarryS)]", "apparent KD of K4 kissing-loop reporter": 150}, {"sequence": "AUGCCUCUGGCUGAUACCAGUGAUGCAGGGUAUGAGACAGGGAGUGAUGUUCCCUGCAGCCACCCUUGGCAGCAGUUUAAGUUUG [Exclusion Theophylline B GF 20]", "apparent KD of K4 kissing-loop reporter": 184}, {"sequence": "GGCAUAUAAAAUUGCCUAGAGAGAAAGGAUACCAGCACCCGGCGGUGCCCUUGGCAGCCUAGCCCAGUGAUGUUGGGUCCUCUAA [Esinvege]", "apparent KD of K4 kissing-loop reporter": 237}, {"sequence": "GCGCGGGAGUGAUGUUCCAAGUGGUGUUAACGAGGACCGGUACGGCCGCCACUCGAUACGGCCGGGCCGUAGGAUAAACUGGCGC [Same State - Tryptophan A (Freestyle 14)]", "apparent KD of K4 kissing-loop reporter": 405}, {"sequence": "ACUGGGUUGACGAAAGUCAACAAAAGAGAAGGAGCGCACGAAAGUGCAGGUAGGUCGCUCAUUCCAGUGAUGUUGGAUCACCAGA [#SwitchBubble 18 #K4Late]", "apparent KD of K4 kissing-loop reporter": 242}, {"sequence": "CGGCGCGGCGCGGCCGCCACUGCGCCUGGGCGCUCGCCGAGUGAUGUUCGUCGGCGGUCGGGUGGCAGGACCGGGUGCCGGCCCG [BDazzled - #20 SS Tryptophan B]", "apparent KD of K4 kissing-loop reporter": 295}, {"sequence": "AGGUCACCACUACAGUGAUGUUGUGGAGAGCAGGAUAUGCAGAAAUGCAGAAGGGCUCGCUCUCGGUGACCGAAUGAAACAUUCA [Omei KL FMN A SS A v7]", "apparent KD of K4 kissing-loop reporter": 404}, {"sequence": "GCGUAUGAUGCUCAAAGAGUAUCUCCCGAUACCAGUAUGGAAACAUACCCUUGGCAGCGGGUAACUGCCCAGUGAUGUUGGACGC [Theophylline A K4 9]", "apparent KD of K4 kissing-loop reporter": 430}, {"sequence": "GCCGUACGCAUGGAUACCAGCUUGUCCGAGUGAUGUUCGGGUCUGAAUGCCGGUAAUAAGAGCCCUUGGCAGCCAUGCGUACGGC", "apparent KD of K4 kissing-loop reporter": 137}]}, {"system": "K4 kissing-loop RNA reporter", "assay": "apparent KD of K4 kissing-loop reporter; higher = weaker reporter binding", "settings": "Eterna round: R107; input ligand: arginine 13.2 mM", "method": "as §1", "units": {"apparent KD of K4 kissing-loop reporter": "nM"}, "values": [{"sequence": "AUUUUGAGUGAUGUUCAUAUCUAUUCUGAAGGAGCGCUAAAUAAGGCAGGUAGGUCGCGGAAUAUAUAUAUAUAUAUAUAUAUAU [KL-SSArg-A30]", "apparent KD of K4 kissing-loop reporter": 809}, {"sequence": "GUAUCGCUAGGAGGAUAUUCCGUUUUUCAUAGAAAUGGCUAUGCGGAGUGAUGUUCCGAUUUACCGGAAGAAGGCCUAGUGAUAC [FMN B 23]", "apparent KD of K4 kissing-loop reporter": 132}, {"sequence": "AUACACGUUGCGGCCGCCACUUCGAUUAGUGAUGUUAGGUGUAAGCAGGCGCUGCAUUAAUGUGAAAGGACCGGGCAGAGUAAGC [theeternabot_exclusion_KL_Trp_B_39]", "apparent KD of K4 kissing-loop reporter": 114}, {"sequence": "UGACUGGACUGAAGGAGCGCUAAACUCCUAGUGAUGUUAGGAAAACGAGACAAAGUCUCGAAGCAGGUAGGUCGCAGUCUAGUCU", "apparent KD of K4 kissing-loop reporter": 147}, {"sequence": "UAUGGCGAGGGCCGCAUAUCAUUAAACCAGAAGGAUAUAUGUUACUAUAGAAGGUCUGCCGCUGCGAGUGAUGUUUGGAGUGAUC [theeternabot_sameState_KL_FMN_A_3]", "apparent KD of K4 kissing-loop reporter": 195}, {"sequence": "CGCAGUGAUGUUGCGAGUAGCUACAGGGAAGGAGCGCUCUAGUGAGCAGGUAGGUCGCCCACGCAGUGAUGUUGCGUCAUAGGGU [Exclusion Arg A GF9]", "apparent KD of K4 kissing-loop reporter": 110}, {"sequence": "GCCCGAAAGGGCCGAUGUGUUUGCGGCGAUCGAGGACCGGUACGGCCGCCACUCGUCGAGGCGUUCAGUGAUGUUGAAAGCAUUA", "apparent KD of K4 kissing-loop reporter": 279}, {"sequence": "CCAAACAGUUACGAUACCAGUCUAAUAUAUUUGAUCAAAACCCUCGCCGAGUGAUGUUCGGACCCUUGGCAGCGUCUGGGACAGG [zzbtmullin]", "apparent KD of K4 kissing-loop reporter": 378}, {"sequence": "AAGGGCUAGGCGGCCGCCACUUGUUGUGAACACAUACGAGCCAGUGAUGUUGGUAUUGUGUGCGGAAGGACCGGGCCUAGCCGAA [Exclusion - Tryptophan B (Freestyle 22)]", "apparent KD of K4 kissing-loop reporter": 226}, {"sequence": "ACGCGCGCGAGUGAUGUUCGGAGCGGCUGGCAGGAUAUGUAGCAAUGCAGAAGGGUCGUGGCGGGCGCGGCGAAAGCCGCGCCCG [#2 Exclusion - FMN A Attempt #6 (HarryS)]", "apparent KD of K4 kissing-loop reporter": 282}, {"sequence": "AUGCCUCUGGCUGAUACCAGUGAUGCAGGGUAUGAGACAGGGAGUGAUGUUCCCUGCAGCCACCCUUGGCAGCAGUUUAAGUUUG [Exclusion Theophylline B GF 20]", "apparent KD of K4 kissing-loop reporter": 180}, {"sequence": "GGCAUAUAAAAUUGCCUAGAGAGAAAGGAUACCAGCACCCGGCGGUGCCCUUGGCAGCCUAGCCCAGUGAUGUUGGGUCCUCUAA [Esinvege]", "apparent KD of K4 kissing-loop reporter": 130}, {"sequence": "GCGCGGGAGUGAUGUUCCAAGUGGUGUUAACGAGGACCGGUACGGCCGCCACUCGAUACGGCCGGGCCGUAGGAUAAACUGGCGC [Same State - Tryptophan A (Freestyle 14)]", "apparent KD of K4 kissing-loop reporter": 376}, {"sequence": "ACUGGGUUGACGAAAGUCAACAAAAGAGAAGGAGCGCACGAAAGUGCAGGUAGGUCGCUCAUUCCAGUGAUGUUGGAUCACCAGA [#SwitchBubble 18 #K4Late]", "apparent KD of K4 kissing-loop reporter": 366}, {"sequence": "CGGCGCGGCGCGGCCGCCACUGCGCCUGGGCGCUCGCCGAGUGAUGUUCGUCGGCGGUCGGGUGGCAGGACCGGGUGCCGGCCCG [BDazzled - #20 SS Tryptophan B]", "apparent KD of K4 kissing-loop reporter": 227}, {"sequence": "AGGUCACCACUACAGUGAUGUUGUGGAGAGCAGGAUAUGCAGAAAUGCAGAAGGGCUCGCUCUCGGUGACCGAAUGAAACAUUCA [Omei KL FMN A SS A v7]", "apparent KD of K4 kissing-loop reporter": 670}, {"sequence": "GCGUAUGAUGCUCAAAGAGUAUCUCCCGAUACCAGUAUGGAAACAUACCCUUGGCAGCGGGUAACUGCCCAGUGAUGUUGGACGC [Theophylline A K4 9]", "apparent KD of K4 kissing-loop reporter": 253}, {"sequence": "GCCGUACGCAUGGAUACCAGCUUGUCCGAGUGAUGUUCGGGUCUGAAUGCCGGUAAUAAGAGCCCUUGGCAGCCAUGCGUACGGC", "apparent KD of K4 kissing-loop reporter": 104}]}, {"system": "K4 kissing-loop RNA reporter", "assay": "apparent KD of K4 kissing-loop reporter; higher = weaker reporter binding", "settings": "Eterna round: R107; input ligand: none", "method": "as §1", "units": {"apparent KD of K4 kissing-loop reporter": "nM"}, "values": [{"sequence": "AUUUUGAGUGAUGUUCAUAUCUAUUCUGAAGGAGCGCUAAAUAAGGCAGGUAGGUCGCGGAAUAUAUAUAUAUAUAUAUAUAUAU [KL-SSArg-A30]", "apparent KD of K4 kissing-loop reporter": 711}, {"sequence": "GUAUCGCUAGGAGGAUAUUCCGUUUUUCAUAGAAAUGGCUAUGCGGAGUGAUGUUCCGAUUUACCGGAAGAAGGCCUAGUGAUAC [FMN B 23]", "apparent KD of K4 kissing-loop reporter": 149}, {"sequence": "AUACACGUUGCGGCCGCCACUUCGAUUAGUGAUGUUAGGUGUAAGCAGGCGCUGCAUUAAUGUGAAAGGACCGGGCAGAGUAAGC [theeternabot_exclusion_KL_Trp_B_39]", "apparent KD of K4 kissing-loop reporter": 160}, {"sequence": "UGACUGGACUGAAGGAGCGCUAAACUCCUAGUGAUGUUAGGAAAACGAGACAAAGUCUCGAAGCAGGUAGGUCGCAGUCUAGUCU", "apparent KD of K4 kissing-loop reporter": 177}, {"sequence": "UAUGGCGAGGGCCGCAUAUCAUUAAACCAGAAGGAUAUAUGUUACUAUAGAAGGUCUGCCGCUGCGAGUGAUGUUUGGAGUGAUC [theeternabot_sameState_KL_FMN_A_3]", "apparent KD of K4 kissing-loop reporter": 260}, {"sequence": "CGCAGUGAUGUUGCGAGUAGCUACAGGGAAGGAGCGCUCUAGUGAGCAGGUAGGUCGCCCACGCAGUGAUGUUGCGUCAUAGGGU [Exclusion Arg A GF9]", "apparent KD of K4 kissing-loop reporter": 113}, {"sequence": "GCCCGAAAGGGCCGAUGUGUUUGCGGCGAUCGAGGACCGGUACGGCCGCCACUCGUCGAGGCGUUCAGUGAUGUUGAAAGCAUUA", "apparent KD of K4 kissing-loop reporter": 352}, {"sequence": "CCAAACAGUUACGAUACCAGUCUAAUAUAUUUGAUCAAAACCCUCGCCGAGUGAUGUUCGGACCCUUGGCAGCGUCUGGGACAGG [zzbtmullin]", "apparent KD of K4 kissing-loop reporter": 500}, {"sequence": "AAGGGCUAGGCGGCCGCCACUUGUUGUGAACACAUACGAGCCAGUGAUGUUGGUAUUGUGUGCGGAAGGACCGGGCCUAGCCGAA [Exclusion - Tryptophan B (Freestyle 22)]", "apparent KD of K4 kissing-loop reporter": 228}]}]}
